Compound in data set [1]: CC(C)(CO)[C@@H](O)C(=O)NCc1cn(CCc2ccccc2)nn1
As to the kind of experiment: (§1) Substrate activity at N-terminal His6-tagged Staphylococcus aureus PanK2 expressed in Escherichia coli BL21(DE3) cells assessed as Km in presence of ATP/NADH by pyruvate kinase/lactate dehydrogenase enzyme coupled assay.

Compound in data set [2]: COC(=O)CNC(=O)[C@H](O)C(C)(C)CO
Described as §1.

Compound in data set [3]: CCCCn1cc(CCNC(=O)[C@H](O)C(C)(C)CO)nn1
Described as §1.

Compound in data set [4]: CCCc1cn(CCCNC(=O)[C@H](O)C(C)(C)CO)nn1
The data set is described as §1.

Compound in data set [5]: CC(C)(CO)[C@@H](O)C(=O)NCCCC(=O)O
The data set is described as §1.

Compound in data set [6]: CCCCCn1cc(CNC(=O)[C@H](O)C(C)(C)CO)nn1
The description is as §1.

Compound in data set [7]: CC(C)(CO)[C@@H](O)C(=O)NCCC(=O)O
The data set is described as §1.

Compound in data set [8]: CCCCCNC(=O)CCNC(=O)[C@H](O)C(C)(C)CO
Described as §1.

Compound in data set [9]: CCCCCc1cn(CCNC(=O)[C@H](O)C(C)(C)CO)nn1
The description is as §1.

Compound in data set [10]: CCCCCn1cc(CCNC(=O)[C@H](O)C(C)(C)CO)nn1
The description is as §1.

Compound in data set [11]: CC(C)(CO)[C@@H](O)C(=O)NCc1cn(CCc2ccccc2)nn1
As to the kind of experiment: (§2) Substrate activity at N-terminal His6-tagged Staphylococcus aureus PanK2 expressed in Escherichia coli BL21(DE3) cells assessed as Kcat in presence of ATP/NADH by pyruvate kinase/lactate dehydrogenase enzyme coupled assay.

Compound in data set [12]: COC(=O)CNC(=O)[C@H](O)C(C)(C)CO
Described as §2.

Compound in data set [13]: CCCCn1cc(CCNC(=O)[C@H](O)C(C)(C)CO)nn1
The data set is described as §2.

Compound in data set [14]: CCCc1cn(CCCNC(=O)[C@H](O)C(C)(C)CO)nn1
The data set is described as §2.

Compound in data set [15]: CC(C)(CO)[C@@H](O)C(=O)NCCCC(=O)O
Described as §2.

Compound in data set [16]: CCCCCn1cc(CNC(=O)[C@H](O)C(C)(C)CO)nn1
The data set is described as §2.

Compound in data set [17]: CC(C)(CO)[C@@H](O)C(=O)NCCC(=O)O
The data set is described as §2.

Compound in data set [18]: CCCCCNC(=O)CCNC(=O)[C@H](O)C(C)(C)CO
The description is as §2.

Compound in data set [19]: CCCCCc1cn(CCNC(=O)[C@H](O)C(C)(C)CO)nn1
Described as §2.

Compound in data set [20]: CCCCCn1cc(CCNC(=O)[C@H](O)C(C)(C)CO)nn1
The data set is described as §2.

Compound in data set [21]: CC(C)(CO)[C@@H](O)C(=O)NCCCC(=O)O
As to the kind of experiment: (§3) Substrate activity at Pseudomonas aeruginosa PanK3 expressed in Escherichia coli BL21(DE3) cells assessed as Km in presence of ATP/NADH by pyruvate kinase/lactate dehydrogenase enzyme coupled assay.

Compound in data set [22]: CC(C)(CO)[C@@H](O)C(=O)NCCC(=O)O
The data set is described as §3.

Compound in data set [23]: O=C(O)CCNC(=O)[C@H](O)CCO
The data set is described as §3.

Compound in data set [24]: CC(C)(CO)[C@@H](O)C(=O)NCCCC(=O)O
The data set is described as follows: (§4) Substrate activity at Pseudomonas aeruginosa PanK3 expressed in Escherichia coli BL21(DE3) cells assessed as Kcat in presence of ATP/NADH by pyruvate kinase/lactate dehydrogenase enzyme coupled assay.

Compound in data set [25]: CC(C)(CO)[C@@H](O)C(=O)NCCC(=O)O
Described as §4.

Compound in data set [26]: O=C(O)CCNC(=O)[C@H](O)CCO
Described as §4.

Some results are limits rather than exact numbers.

This is an account of results in ChEMBL document CHEMBL4261651, “Probing the ligand preferences of the three types of bacterial pantothenate kinase” (Bioorg Med Chem, 2018).

B1: Type II pantothenate kinase (Staphylococcus aureus (strain MSSA476)), Q6G7I0 (protein)
chain: MKVGIDAGGTLIKIVQEQDNQRTFKTELTKNIDQVVEWLNQQQIEKLCLTGGNAGVIAENINIPAQIFVEFDAASQGLGILLKEQGHDLADYIFANVGTGTSLHYFDGQSQRRVGGIGTGGGMIQGLGYLLSQITDYKQLTDMAQHGDRNTIDLKVRHIYKDTEPPIPGDLTAANFGHVLHHLDADFTPSNKLAAVIGVVGEVVTTMAITVAREFKTENIVYIGSSFHNNALLRKVVEDYTVLRGCKPYYVENGAFSGAIGALYLEK
As to B1, the Km in data set [1] was 126 µM; in [2], 36 µM; in data set [3], 7.1 µM; in data set [4] it was 369 µM; in data set [5], 60 µM; in [6], 64 µM. Further, the Km is 19 µM in [7], below 1.5 µM in data set [8], 8.5 µM in [9] and 6.8 µM in data set [10]. For the same protein, the kcat came out at 4.7 s⁻¹ in [11]; 4 s⁻¹ in data set [12]; 0.82 s⁻¹ in [13]; 7.6 s⁻¹ in data set [14]; 3.4 s⁻¹ in [15]; 3.4 s⁻¹ in [16]. Besides, the kcat in data set [17] is 2.16 s⁻¹; in data set [18], 0.44 s⁻¹; in [19], 0.82 s⁻¹; in [20], 0.73 s⁻¹.

B2: Type III pantothenate kinase (Pseudomonas aeruginosa (strain ATCC 15692 / DSM 22644 / CIP 104116 /JCM 14847 / LMG 12228 / 1C / PRS 101 / PAO1)), Q9HWC1 (protein)
chain: MILELDCGNSLIKWRVIEGAARSVAGGLAESDDALVEQLTSQQALPVRACRLVSVRSEQETSQLVARLEQLFPVSALVASSGKQLAGVRNGYLDYQRLGLDRWLALVAAHHLAKKACLVIDLGTAVTSDLVAADGVHLGGYICPGMTLMRSQLRTHTRRIRYDDAEARRALASLQPGQATAEAVERGCLLMLRGFVREQYAMACELLGPDCEIFLTGGDAELVRDELAGARIMPDLVFVGLALACPIE
Consider B2, for which the Km in [21] stood at 683 µM; in [22], 20 µM; in [23], 64 µM. For the same protein, the figures for the kcat in [24], in [25] and in data set [26] were 0.98 s⁻¹, 0.39 s⁻¹ and 0.32 s⁻¹, respectively.
